This note sets out measurements from publication PMC8024369.

Test [1] concerns the target rationally optimised SUWA (N22E/H86K mutant of SUWA, super WA20). Briefly: SEC-MALS; Superdex 75 Increase 10/300 GL, 20 °C, 20 mM HEPES pH 7.5, 150 mM NaCl, 5% glycerol; oligomeric number from the mass of each peak and the theoretical mass of the monomer. (In gel filtration, larger molecules generally elute earlier.)
The target of test [2] is rationally optimised WA20 (N22A/H86K mutant of the de novo protein WA20). The description is as above.

Several values for one entry are separate records, joined by “and”; a condition that tells them apart may be missing. Equal entries are not always repeated.

In test [1], “rationally optimised SUWA (N22E/H86K mutant of SUWA, super WA20)” registered a mass fraction of peak (i), dimer of 64%; a mass fraction of peak (ii), tetramer of 18%; a mass fraction of peak (iii), hexamer of 7%; a mass fraction of peak (iv), higher oligomers of 11%.

What is called stoichiometry N is the number of molecules, sites or subunits per partner or assembly. In the case of “rationally optimised WA20 (N22A/H86K mutant of the de novo protein WA20)”, in test [2], the mass fraction of peak (i), dimer is 77%; the mass fraction of peak (ii), tetramer came out at 21%; the mass fraction of peak (iii), hexamer was found to be 2%; the stoichiometry N is 2 mer and 4 mer and 6 mer.
